Test results: patent US20240270846A1 (published 2024)

B1: CE115HA000 A99K one-arm antibody (antibody, human IgG1, kappa, L234A L235A, N297A, name in Kabat numbering)
heavy: QVQLVESGGGVVQPGRSLRLSCAASGFTFSNAWMHWVRQAPGKGLEWVAQIKAKSNNYATYYAESVKGRFTISRDDSKNSLYLQMNSLKTEDTAVYYCRYVHYGKYYGVDAWGQGTTVTVSSASTKGPSVFPLAPSSKSTSGGTAALGCLVKDYFPEPVTVSWNSGALTSGVHTFPAVLQSSGLYSLSSVVTVPSSSLGTQTYICNVNHKPSNTKVDKKVEPKSCDKTHTCPPCPAPEAAGGPSVFLFPPKPKDTLMISRTPEVTCVVVDVSHEDPEVKFNWYVDGVEVHNAKTKPREEQYASTYRVVSVLTVLHQDWLNGKEYKCKVSNKALPAPIEKTISKAKGQPREPQVYTLPPSRCELTKNQVSLSCAVKGFYPSDIAVEWESNGQPENNYKTTPPVLDSDGSFFLVSKLTVDKSRWQQGNVFSCSVMHEALHNHYTQKSLSLSPDYKDDDDK
chain: EPKSSDKTHTCPPCPAPELLGGPSVFLFPPKPKDTLMISRTPEVTCVVVDVSHEDPEVKFNWYVDGVEVHNAKTKPREEQYNSTYRVVSVLTVLHQDWLNGKEYKCKVSNKALPAPIEKTISKAKGQPREPQVCTLPPSRDELTKNQVSLWCLVKGFYPSDIAVEWESNGQPENNYKTTPPVLDSDGSFFLYSKLTVDKSRWQQGNVFSCSVMHEALHNRYTQKSLSLSP
light: DIVMTQSPLSLPVTPGEPASISCRSSQSLVHSNRNTYLHWYQQKPGQAPRLLIYKVSNRFSGVPDRFSGSGSGTDFTLKISRVEAEDVGVYYCGQGTQVPYTFGQGTKLEIKRTVAAPSVFIFPPSDEQLKSGTASVVCLLNNFYPREAKVQWKVDNALQSGNSQESVTEQDSKDSTYSLSSTLTLSKADYEKHKVYACEVTHQGLSSPVTKSFNRGEC
notes: one-arm antibody (one Fab)
B2: CE115HA000 A99Q one-arm antibody (antibody, human IgG1, kappa, L234A L235A, N297A, name in Kabat numbering)
heavy: QVQLVESGGGVVQPGRSLRLSCAASGFTFSNAWMHWVRQAPGKGLEWVAQIKAKSNNYATYYAESVKGRFTISRDDSKNSLYLQMNSLKTEDTAVYYCRYVHYGQYYGVDAWGQGTTVTVSSASTKGPSVFPLAPSSKSTSGGTAALGCLVKDYFPEPVTVSWNSGALTSGVHTFPAVLQSSGLYSLSSVVTVPSSSLGTQTYICNVNHKPSNTKVDKKVEPKSCDKTHTCPPCPAPEAAGGPSVFLFPPKPKDTLMISRTPEVTCVVVDVSHEDPEVKFNWYVDGVEVHNAKTKPREEQYASTYRVVSVLTVLHQDWLNGKEYKCKVSNKALPAPIEKTISKAKGQPREPQVYTLPPSRCELTKNQVSLSCAVKGFYPSDIAVEWESNGQPENNYKTTPPVLDSDGSFFLVSKLTVDKSRWQQGNVFSCSVMHEALHNHYTQKSLSLSPDYKDDDDK
chain: EPKSSDKTHTCPPCPAPELLGGPSVFLFPPKPKDTLMISRTPEVTCVVVDVSHEDPEVKFNWYVDGVEVHNAKTKPREEQYNSTYRVVSVLTVLHQDWLNGKEYKCKVSNKALPAPIEKTISKAKGQPREPQVCTLPPSRDELTKNQVSLWCLVKGFYPSDIAVEWESNGQPENNYKTTPPVLDSDGSFFLYSKLTVDKSRWQQGNVFSCSVMHEALHNRYTQKSLSLSP
light: DIVMTQSPLSLPVTPGEPASISCRSSQSLVHSNRNTYLHWYQQKPGQAPRLLIYKVSNRFSGVPDRFSGSGSGTDFTLKISRVEAEDVGVYYCGQGTQVPYTFGQGTKLEIKRTVAAPSVFIFPPSDEQLKSGTASVVCLLNNFYPREAKVQWKVDNALQSGNSQESVTEQDSKDSTYSLSSTLTLSKADYEKHKVYACEVTHQGLSSPVTKSFNRGEC
notes: one-arm antibody (one Fab)
B3: CE115HA000 A99L one-arm antibody (antibody, human IgG1, kappa, L234A L235A, N297A, name in Kabat numbering)
heavy: QVQLVESGGGVVQPGRSLRLSCAASGFTFSNAWMHWVRQAPGKGLEWVAQIKAKSNNYATYYAESVKGRFTISRDDSKNSLYLQMNSLKTEDTAVYYCRYVHYGLYYGVDAWGQGTTVTVSSASTKGPSVFPLAPSSKSTSGGTAALGCLVKDYFPEPVTVSWNSGALTSGVHTFPAVLQSSGLYSLSSVVTVPSSSLGTQTYICNVNHKPSNTKVDKKVEPKSCDKTHTCPPCPAPEAAGGPSVFLFPPKPKDTLMISRTPEVTCVVVDVSHEDPEVKFNWYVDGVEVHNAKTKPREEQYASTYRVVSVLTVLHQDWLNGKEYKCKVSNKALPAPIEKTISKAKGQPREPQVYTLPPSRCELTKNQVSLSCAVKGFYPSDIAVEWESNGQPENNYKTTPPVLDSDGSFFLVSKLTVDKSRWQQGNVFSCSVMHEALHNHYTQKSLSLSPDYKDDDDK
chain: EPKSSDKTHTCPPCPAPELLGGPSVFLFPPKPKDTLMISRTPEVTCVVVDVSHEDPEVKFNWYVDGVEVHNAKTKPREEQYNSTYRVVSVLTVLHQDWLNGKEYKCKVSNKALPAPIEKTISKAKGQPREPQVCTLPPSRDELTKNQVSLWCLVKGFYPSDIAVEWESNGQPENNYKTTPPVLDSDGSFFLYSKLTVDKSRWQQGNVFSCSVMHEALHNRYTQKSLSLSP
light: DIVMTQSPLSLPVTPGEPASISCRSSQSLVHSNRNTYLHWYQQKPGQAPRLLIYKVSNRFSGVPDRFSGSGSGTDFTLKISRVEAEDVGVYYCGQGTQVPYTFGQGTKLEIKRTVAAPSVFIFPPSDEQLKSGTASVVCLLNNFYPREAKVQWKVDNALQSGNSQESVTEQDSKDSTYSLSSTLTLSKADYEKHKVYACEVTHQGLSSPVTKSFNRGEC
notes: one-arm antibody (one Fab)
B4: CE115HA000 A99S one-arm antibody (antibody, human IgG1, kappa, L234A L235A, N297A, name in Kabat numbering)
heavy: QVQLVESGGGVVQPGRSLRLSCAASGFTFSNAWMHWVRQAPGKGLEWVAQIKAKSNNYATYYAESVKGRFTISRDDSKNSLYLQMNSLKTEDTAVYYCRYVHYGSYYGVDAWGQGTTVTVSSASTKGPSVFPLAPSSKSTSGGTAALGCLVKDYFPEPVTVSWNSGALTSGVHTFPAVLQSSGLYSLSSVVTVPSSSLGTQTYICNVNHKPSNTKVDKKVEPKSCDKTHTCPPCPAPEAAGGPSVFLFPPKPKDTLMISRTPEVTCVVVDVSHEDPEVKFNWYVDGVEVHNAKTKPREEQYASTYRVVSVLTVLHQDWLNGKEYKCKVSNKALPAPIEKTISKAKGQPREPQVYTLPPSRCELTKNQVSLSCAVKGFYPSDIAVEWESNGQPENNYKTTPPVLDSDGSFFLVSKLTVDKSRWQQGNVFSCSVMHEALHNHYTQKSLSLSPDYKDDDDK
chain: EPKSSDKTHTCPPCPAPELLGGPSVFLFPPKPKDTLMISRTPEVTCVVVDVSHEDPEVKFNWYVDGVEVHNAKTKPREEQYNSTYRVVSVLTVLHQDWLNGKEYKCKVSNKALPAPIEKTISKAKGQPREPQVCTLPPSRDELTKNQVSLWCLVKGFYPSDIAVEWESNGQPENNYKTTPPVLDSDGSFFLYSKLTVDKSRWQQGNVFSCSVMHEALHNRYTQKSLSLSP
light: DIVMTQSPLSLPVTPGEPASISCRSSQSLVHSNRNTYLHWYQQKPGQAPRLLIYKVSNRFSGVPDRFSGSGSGTDFTLKISRVEAEDVGVYYCGQGTQVPYTFGQGTKLEIKRTVAAPSVFIFPPSDEQLKSGTASVVCLLNNFYPREAKVQWKVDNALQSGNSQESVTEQDSKDSTYSLSSTLTLSKADYEKHKVYACEVTHQGLSSPVTKSFNRGEC
notes: one-arm antibody (one Fab)

Biological target: T1, CD3 epsilon homodimer protein (UniProt P07766 23-126)
T1 construct: Immobilized on Sensor chip CM4 by amine coupling; construct not described; also called CD3 (CD3 epsilon)
Assay: SPR Biacore T200, CD3 epsilon homodimer on CM4 chip, antibody as analyte;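 note: Amine-coupled CD3 epsilon homodimer, run at 25 °C in HBS-EP+ buffer, ratio is bound amount of each single-residue H chain variant over that of the parent antibody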

T1 sequence (P07766 23-126): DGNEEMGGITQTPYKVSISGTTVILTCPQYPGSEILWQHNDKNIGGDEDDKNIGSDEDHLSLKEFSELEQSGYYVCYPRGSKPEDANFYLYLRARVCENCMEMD

Point of comparison: B1, “ratio of amounts bound (Y/X vs CE115HA000)” value 1.48. Against it:
- B2 — lower, 0.91
- B3 — lower, 1.13
- B4 — lower, 0.82
